Laboratory results published in the supplement of paper PMC10567573.

B1: FBXO34 (parent)
chain: ASSVESTLPVLEASSWKKQVSHDF

Variants of: B1
Assay: protein stability index of a GFP-peptide fusion (GPS, HEK-293T) (PSI 1-6); higher = more stable
Settings: c terminus: a fixed tail appended
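Note: lentivirally expressed fusions sorted by FACS into six bins by GFP to DsRed ratio, PSI derived from sequencing read proportions per bin multiplied by bin number.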

Compared with S3G, S3I is lower in protein stability index: 3.27 for the first, 2.69 for the second.

Going from S3E to S3T, the protein stability index falls from 3.72 to 3.22.

Compared with S3D, S3Y is lower in protein stability index: 3.29 for the first, 2.46 for the second.

Compared with S3M, S3W is lower in protein stability index: 2.63 for the first, 2.02 for the second.

Going from S3A to S3H, the protein stability index rises from 1.86 to 3.38.

Going from S3F to S3C, the protein stability index falls from 2.38 to 2.19.

Going from S3K to S3V, the protein stability index falls from 2.56 to 2.49.

First: S3N
Second: S3L
The protein stability index of the first is higher: 3.07 for the first, 2.62 for the second.

First: S3Q
Second: S3P
The protein stability index of the first is lower: 2.88 for the first, 3.31 for the second.

First: L8Y
Second: L8E
The protein stability index of the first is lower: 2.39 for the first, 3.38 for the second.

Going from L8G to L8I, the protein stability index falls from 3.59 to 2.82.

Compared with L8R, L8M is lower in protein stability index: 3.05 for the first, 1.91 for the second.

Compared with L8Q, L8K is higher in protein stability index: 2.04 for the first, 3.22 for the second.

Going from L8P to L8S, the protein stability index rises from 2.66 to 3.57.

First: L8F
Second: L8H
The protein stability index of the first is lower: 2.52 for the first, 2.89 for the second.

Compared with L8V, L8C is higher in protein stability index: 1.83 for the first, 3.4 for the second.

First: L8T
Second: L11Q
The protein stability index of the first is higher: 3.38 for the first, 2.96 for the second.

First: L11P
Second: L11K
The protein stability index of the first is higher: 2.78 for the first, 2.19 for the second.

Going from L11I to L11W, the protein stability index falls from 2.91 to 2.54.

Going from L11N to L11E, the protein stability index rises from 2.85 to 3.02.

Going from L11C to L11M, the protein stability index falls from 2.85 to 2.33.

Compared with L11T, L11R is higher in protein stability index: 2.87 for the first, 3.05 for the second.

Going from L11F to L11G, the protein stability index falls from 2.88 to 2.01.

Compared with L11Y, L11V is higher in protein stability index: 2.69 for the first, 3.03 for the second.

Compared with L11A, E5M is lower in protein stability index: 3.52 for the first, 2.84 for the second.

Compared with E5L, E5C is lower in protein stability index: 2.9 for the first, 2.38 for the second.

Going from E5F to E5W, the protein stability index rises from 1.77 to 2.03.

First: E5N
Second: E5Y
The protein stability index of the first is higher: 2.28 for the first, 1.9 for the second.

First: E5K
Second: E5A
The protein stability index of the first is lower: 2.48 for the first, 2.68 for the second.

Going from E5G to E5I, the protein stability index falls from 2.61 to 2.17.

Compared with E5D, E5S is lower in protein stability index: 3.22 for the first, 3.21 for the second.

Going from E5H to E5Q, the protein stability index rises from 2.4 to 2.51.

First: E5V
Second: E12D
The protein stability index of the first is higher: 2.9 for the first, 2.83 for the second.

Compared with E12A, E12C is lower in protein stability index: 3.02 for the first, 2.54 for the second.

First: V4H
Second: V4F
The protein stability index of the first is higher: 3.39 for the first, 2.1 for the second.

Going from V4T to V4E, the protein stability index rises from 2.88 to 3.67.

Going from V4W to V4A, the protein stability index rises from 2.5 to 3.39.

Going from V4G to V4D, the protein stability index falls from 3.15 to 2.4.

Compared with V4R, V4S is higher in protein stability index: 2.64 for the first, 3.01 for the second.

First: V4I
Second: V4M
The protein stability index of the first is higher: 2.75 for the first, 2.51 for the second.

Going from V4Y to V4Q, the protein stability index rises from 2.46 to 3.53.

First: V4C
Second: V4P
The protein stability index of the first is lower: 2.45 for the first, 2.77 for the second.
